Source: the supplement of paper PMC11246515
± gives the standard deviation of the averaged measurements.

Test: total protein half-life in vivo (active degradation + dilution); higher = more stable protein
[1] = E. coli NCM3722 delta-clpP delta-lon delta-hslV, growth: N-lim chemostat, doubling time 6 h
[2] = E. coli NCM3722 delta-clpP, growth: N-lim chemostat, doubling time 6 h
[3] = E. coli NCM3722 delta-hslV, growth: N-lim chemostat, doubling time 6 h
[4] = E. coli NCM3722 delta-lon, growth: N-lim chemostat, doubling time 6 h
[5] = E. coli NCM3722 delta-smpB, growth: N-lim chemostat, doubling time 6 h
[6] = wild type E. coli NCM3722, growth: C-lim chemostat, doubling time 3 h
[7] = wild type E. coli NCM3722, growth: C-lim chemostat, doubling time 6 h
[8] = wild type E. coli NCM3722, growth: C-lim chemostat, doubling time 12 h
[9] = wild type E. coli NCM3722, growth: N-lim chemostat, doubling time 12 h
[10] = wild type E. coli NCM3722, growth: P-lim chemostat, doubling time 6 h
[11] = wild type E. coli NCM3722, growth: P-lim chemostat, doubling time 12 h
[12] = wild type E. coli NCM3722, growth: N-lim chemostat, doubling time 6 h

Row | Sequence | total protein half-life in vivo [1] | total protein half-life in vivo [2] | total protein half-life in vivo [3] | total protein half-life in vivo [4] | total protein half-life in vivo [5] | total protein half-life in vivo [6] | total protein half-life in vivo [7] | total protein half-life in vivo [8] | total protein half-life in vivo [9] | total protein half-life in vivo [10] | total protein half-life in vivo [11] | total protein half-life in vivo [12]
1 | MTMKKLLIIILPVLLSGCSAFNQLVERMQTDTLEYQCDEKPLTVKLNNPRQEVSFVYDNQLLHLKQGISASGARYTDGIYVFWSKGDEATVYKRDRIVLNNCQLQNPQR | 5.8 ± 0.46 h | 6.62 ± 0.99 h | 6.27 h | 6.49 ± 0.45 h | 5.45 ± 0.23 h | 3.27 ± 0.96 h | 6.52 ± 1.3 h | 13.5 ± 0.37 h | 14.4 ± 0.55 h | 6.32 ± 0.75 h | 13.8 ± 1.6 h | –
2 | MTQYSSLLRGLAAGSAFLFLFAPTAFAAEQTVEAPSVDARAWILMDYASGKVLAEGNADEKLDPASLTKIMTSYVVGQALKADKIKLTDMVTVGKDAWATGNPALRGSSVMFLKPGDQVSVADLNKGVIIQSGNDACIALADYVAGSQESFIGLMNGYAKKLGLTNTTFQTVHGLDAPGQFSTARDMALLGKALIHDVPEEYAIHKEKEFTFNKIRQPNRNRLLWSSNLNVDGMKTGTTAGAGYNLVASATQGDMRLISVVLGAKTDRIRFNESEKLLTWGFRFFETVTPIKPDATFVTQRVWFGDKSEVNLGAGEAGSVTIPRGQLKNLKASYTLTEPQLTAPLKKGQVVGTIDFQLNGKSIEQRPLIVMENVEEGGFFGRVWDFVMMKFHQWFGSWFS | 6.35 ± 0.48 h | 6.56 ± 0.37 h | 6.22 ± 0.69 h | 6.18 ± 0.099 h | 6.46 ± 0.26 h | 3.19 ± 0.077 h | 6.19 ± 1.3 h | 12.4 ± 0.45 h | 14.9 ± 1.2 h | 5.962 ± 0.051 h | 13.2 ± 0.29 h | 5.989 ± 0.057 h
3 | MPSAHSVKLRPLEREDLRYVHQLDNNASVMRYWFEEPYEAFVELSDLYDKHIHDQSERRFVVECDGEKAGLVELVEINHVHRRAEFQIIISPEYQGKGLATRAAKLAMDYGFTVLNLYKLYLIVDKENEKAIHIYRKLGFSVEGELMHEFFINGQYRNAIRMCIFQHQYLAEHKTPGQTLLKPTAQ [P0A951] | 5.494 ± 0.021 h | 6.01 ± 1.7 h | 5.04 ± 1.1 h | – | 5.16 ± 0.071 h | 2.7 ± 0.18 h | 5.17 ± 0.15 h | 10.5 ± 0.81 h | 9.78 ± 1.9 h | 5.06 ± 0.2 h | 11.6 ± 0.61 h | 4.92 ± 0.18 h
4 | MQDEYYMARALKLAQRGRFTTHPNPNVGCVIVKDGEIVGEGYHQRAGEPHAEVHALRMAGEKAKGATAYVTLEPCSHHGRTPPCCDALIAAGVARVVASMQDPNPQVAGRGLYRLQQAGIDVSHGLMMSEAEQLNKGFLKRMRTGFPYIQLKLGASLDGRTAMASGESQWITSPQARRDVQLLRAQSHAILTSSATVLADDPALTVRWSELDEQTQALYPQQNLRQPIRIVIDSQNRVTPVHRIVQQPGETWFARTQEDSREWPETVRTLLIPEHKGHLDLVVLMMQLGKQQINSIWVEAGPTLAGALLQAGLVDELIVYIAPKLLGSDARGLCTLPGLEKLADAPQFKFKEIRHVGPDVCLHLVGA | 5.45 ± 0.12 h | 4.76 ± 0.62 h | 5.07 ± 0.25 h | 5.1 ± 0.31 h | 4.57 ± 0.21 h | 2.9 ± 0.13 h | 6.76 ± 0.081 h | 10.1 ± 0.38 h | 8.77 ± 0.11 h | 5.904 ± 0.027 h | 11.7 ± 0.15 h | 4.98 ± 0.35 h
5 | MFKKGLLALALVFSLPVFAAEHWIDVRVPEQYQQEHVQGAINIPLKEVKERIATAVPDKNDTVKVYCNAGRQSGQAKEILSEMGYTHVENAGGLKDIAMPKVKG | – | – | – | 2.7 ± 0.26 h | 2.61 h | 1.97 ± 0.051 h | 2.89 h | 3.42 ± 0.39 h | – | – | 3.19 h | –
6 | MQVSVETTQGLGRRVTITIAADSIETAVKSELVNVAKKVRIDGFRKGKVPMNIVAQRYGASVRQDVLGDLMSRNFIDAIIKEKINPAGAPTYVPGEYKLGEDFTYSVEFEVYPEVELQGLEAIEVEKPIVEVTDADVDGMLDTLRKQQATWKEKDGAVEAEDRVTIDFTGSVDGEEFEGGKASDFVLAMGQGRMIPGFEDGIKGHKAGEEFTIDVTFPEEYHAENLKGKAAKFAINLKKVEERELPELTAEFIKRFGVEDGSVEGLRAEVRKNMERELKSAIRNRVKSQAIEGLVKANDIDVPAALIDSEIDVLRRQAAQRFGGNEKQALELPRELFEEQAKRRVVVGLLLGEVIRTNELKADEERVKGLIEEMASAYEDPKEVIEFYSKNKELMDNMRNVALEEQAVEAVLAKAKVTEKETTFNELMNQQA [P0A850] | 6.11 ± 0.15 h | 5.78 ± 0.82 h | 5.67 ± 0.022 h | 6 ± 0.012 h | 4.96 ± 0.061 h | 3.12 ± 0.18 h | 5.738 ± 0.013 h | 10.4 ± 0.89 h | 9.03 ± 0.57 h | 5.01 ± 0.23 h | 9.5 ± 0.3 h | 5.35 ± 0.36 h
7 | MNGKLQSSDVKNETPYNIPLLINENVISSGISLISLWHTYADEHYRVIWPRDKKKPLIANSWVAVYTVQGCGKILLKNGEQITLHGNCIIFLKPMDIHSYHCEGLVWEQYWMEFTPTSMMDIPVGQQSVIYNGEIYNQELTEVAELITSPEAIKNNLAVAFLTKIIYQWICLMYADGKKDPQRRQIEKLIATLHASLQQRWSVADMAATIPCSEAWLRRLFLRYTGKTPKEYYLDARLDLALSLLKQQGNSVGEVADTLNFFDSFHFSKAFKHKFGYAPSAVLKNTDQHPTDASPHN | 5.49 ± 0.17 h | – | – | – | 1.33 ± 0.21 h | – | – | – | – | – | – | –
